We go through one variant from PMC11519390.

The labels stand for the following.
B1: HA-tagged wildtype Drosophila CYRI [Drosophila] / GST-tagged constitutively active Rac1 [Drosophila] (parent)
chain 1: MGKLLSLLSRDDSNCCAAKSYDVFLDFENAAPTETERAVYDEVERVLRESEVVLDEIQIYRGAGKEIREAIADPSPEVTAKAWAAVLPLVNKLKRCYEHSMELDKIVPKLLGQLVGGKLNPTQHLETQQALVKQLAEILEFVLKFDEYKMKTPAIQNDFSYYRRIVSRQRVDSTENMLVSTELANRMSLFYAHATPMLKVLSEATSKFVNDNADDVQNTTETLGTMAKVCLRMLENPKLLQQIEREDTKMLVLRVMVGLVILYDHVHPEGAFVRGAHVDVKGCVRLLQAQPAIKAEPLLNALRYTTKHLNGENTPKNIQRLLAA
chain 2: not shown

Variants of B1 are the subject of the assay. In words: GST pull-down, western blot quantification. The following applies: with GST-tagged constitutively active Rac1 Q61L [Drosophila]; Signals normalized to loaded input (1% of the starting lysate material); three independent experiments; read off a plot. In general terms: Immunoblotting shows a protein as a band on a membrane.
chain 1 R163D R164D: the response (% bound input) was 0.015.
